Experiment: yeast display, Sf9 membrane polyspecificity reagent, FACS + sequencing; frameworks hold sequencing errors
In short: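 A synthetic nanobody library was expressed on Saccharomyces cerevisiae BJ5465 by galactose induction for 36–48 hours. The library was stained for 1 hour at 4 °C with 10% biotinylated, detergent-solubilized Sf9 membrane reagent and enriched with streptavidin microbeads before FACS. Low and high (top ~1%) gates were set on anti-HA fluorescence for expression and streptavidin fluorescence for reagent binding, and each polyreactivity label reflects the gate of origin.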

Sequence | polyreactivity (PSR sort gate)
QVQLVESGGGLVQAGGSLRLSCAASGIIFRKYAMGWYRQAPGKERELVAAISFSGGTTYYADSVKGRFTISRDNAKNTVYLQMNSLKPEDTAVYYCAADPVAYVIDDYYWGQGTQVTVSS | high polyreactivity
QVQLVESGGGLVQAGGSLRLSCAASGNTFSWYAMGWYRQAPGKERELVAVITSGGSTNYADSVKGRFTISRDNAKNTVYLQMNSLKPEDTAVYYCNKGLSRSYWWVDYWGQGTQVTVSS | low polyreactivity
QVQLVESGGGLVQAGGSLRLSCAASGLTFSDYTMGWYRQAPGKERELVAAISDSTGSTYYADSVKGRFTMSRDNAKNTVYLQMNSLKPEDTAVYNCIAYGYYHRLYSYTYGYWGQGTQVTVSS | low polyreactivity
QVQLVESGGGLVQAGGSLRLSCAASGSTFYSYVMGGYRQAPGKERELVAAISKRGTSTYYADSVKGRFTISRDNAKYTVYLQMNSLKPEDNAVYYCAARPIVGVYPDIYDYWGHGTQVTVSS | low polyreactivity
QVPLVESGGGLVQAGGRLRLSCAASGSTLLNSPMGWYRKAPGKERELVAAISSSGGRTYYPDSVKGRFTISRDNAKNTVYLQMNSLTPEDTEVYYCNKVLGYPKTFGYWGQGTQVSVSS | high polyreactivity
QVQLVESGGGLVQAGGSLSLSCAASGSTFGSNAMGWYRQAPAKERELVAAISWSGGRTYYADSVKGRFTISRDNAKNTVYLQMNRLIPEDTAVYYCYARQFRTMGYWGQGTQVNVSS | high polyreactivity
QVQLVESWGGLVQAGGSLRLSCAASGFTYSQYVMGWYIQAPGKERELVASITGNGGSTRYADSVKGRFTISRDNAKNTVYLHMNSLKPEDTAVYYCAARYVYFRWGSFDYWGQGTQVTVSS | high polyreactivity
QVQLVESGGGLVQAGGSLRLSCAASGSTFGYNAMGWSRPAPGKERELVAAITWSGGSTYYADSVKGRFTISRDNAKNTVYLQMNSLKPEDTAVYYCAADDWYNSKWHYYYWGQGTQVTVSS | low polyreactivity
QVQLVESGGGLVQAGGSLRLSCAASGSIFDQNAMVWYRQAPGKERELVAAITRGGSTKYADSVKGRFTISRDNAKNTVYLQMNSLKPEDTAVYYCARTARRRYQPYEYWGQGTQVTVSS | low polyreactivity
QVQLVESGGGLVQAGGSLRLSCAASGSIIPLYAMGWYRQAPGKERELVATINRRTGSTYADSVKGRFTISRDNAKNTVYLQMNSLKPEDTAVYYCNAADNYVRFYKTRIYNYWGQGTQVTVSS | high polyreactivity
QVQLVESGGGLVQAGGSLRLSCAASGFTFISNAMGWYRQAPGKERELVAAISSSGGRTYYADSVKGRFTISRDNAKNTVYLQMNRLKPEDTAVYYCNADRSLLYSRKIEYDYWGQGTQVTVSS | low polyreactivity
QVQLVESGGGLVQAGGSLRLSCAGSGRIFFWYVMGWYRQAPGKERELVAAISSGGRTYYADSVKGRFTISRDNAKNTVYLQMNSLKPEDTAVYYCAAVRRYLKAAYGYWGQGTQVTVSS | low polyreactivity
QVQLVESGGGLVQAGGSLRLSCAASGSIFWRYAMGWYRQAPGKERELVAVISDRGGITYYADSVKGRFTISRDNAKNTVYLQMNSLKPEDTAVYYCNAVDSDRSDPSEYDYWGQGTQVTVSS | low polyreactivity
QVQLVESGGGLVQAGGSLRLSCAASGNTFTRNAMGWYRQAPGKERELVAAITGRGGTYYADSVKGRFTISRDNAKNTVYLQMNSLKPEDTAVYYCAAASVTRRDLDYWGQGTQVTVSS | high polyreactivity
QVQLVESGGGLVQAGGSLRLSCAASGRIFNVNALGWYRQAPGKERELVAAINWSGGRTYYADSVKGRFTISRDNAKNTVYLQLNSLKPEDTAVYYCAADTRYPYRAYDYWGQGTQVTVAS | high polyreactivity
QVQLVESGGGLVQAGGSLRLSCAASGRILHRYVMGWYRQAPGKERELVAAISSGGSTTYADSVKGRFTISRDNAKYTVYLQMNSLKPEDTAVYYCAADARYSRRYYYWGQGTQVTVSS | low polyreactivity
QVQLVESGGGLVQAGGSLRLSCAASGPTFGVNAMGWYRQAPGKERELVAVISSTGSTNYSDSVKGRFTISRDNAKYTVYLQMNSLKPEDTAVYYCAVGPNSVGNRSYGFDYWGQGTQVTVSS | low polyreactivity
QAQLVESGGGLVQAGGSLRLICAASGSTFGVNAMGWYTQAPGKERELVAIITSTTYADSVKGRFTISRDNAKNTVYLQMNSLKPEDTAVYYCAKVQERVTKGRFYLLEYYWGQGTQVTVSS | low polyreactivity
QVQLVESGGGLVQAGGSLRLSCAASRFTFRRNAMGWYRQAPGKERELVAAITYNGGTTYYADSVKGRFTISRDNAKNTVYLQMNSLKPEDTAVYYCNAPYGRQGYDYWGQGTQVTVSS | low polyreactivity
QVQLVESGGGLVQAGGSLRLSCAASGRTFAVYAMGWYRQAPGKERELVAAISSTGGTYYADSVKGRFTISRDNAKNTVYLQMNSLKPEDTAVYYCAATFIQVVVNVQLYDYDYWGQGTQVTVSS | low polyreactivity
QVQLVESGGGLVQAGGSLRLSCAASGSIFHMNAMGWYRQAPGKERELDASISSDGSTYYADSVKGRFTISRDNAKNTVYLQMNSLKPEVTAVYYCNADSQWALKQLSFDYWGQGTQVTVSS | low polyreactivity
QVQLVESGGGLVQAGGSLRLSCAASGSIFGRYVMGWYRQAPGKERELVAAINRSGGRTYYADSVKGRFTISRDTAKNTVYLQMNSLKPEDTAVYYCATYTRSSASKEVPYDYWGQGTEVTVSS | high polyreactivity

Sequence | polyreactivity (PSR sort gate)
QVQLVESGGGLVQAGGSLRLSCAASGLIFRYYSMGWYRQAPGKERELVAAISWTGGSTYYADSVKGRFTISRDNAKYTVYLQLNSLKPEDTAVYYCIAGQWRYPGLYYYWGQGTQVTVSS | high polyreactivity
QVQLVESGGGLVQAGGSLSLICAASGFTFVDYAMGWYRQAPGKERELVAAITVSGDSTYYADSVKGRFTISRDIAKNTVYFQMNSLKPEDTAVYYCAADPGYYDGGYWGQGTQVTVSS | low polyreactivity
QVQLVESGGGLVQAGGSLRLSCAASGIIFYYYVLGWYRQAPGKERELVAAISARGGSTTYADSVKGRFTISRDNAKNTVYLQMISLKPEDTAVYYCAADVSYWRHGYQLSYDYWGQVTQVTVSS | high polyreactivity
QVQLVESGGGLVQAGGSLRLSCAASGSTLRSYVMGWYRQAPGKERELVAAISIRGDSTYYADSVKGRFTISRDNAKNTVYLQMNSLKPEDTAVYYCAAASNRYPNSWYYYWGQGTQVTVSS | high polyreactivity
QVQLVESGGGLVQAGGSLRLSCAASGFTFGRYAMGWYRQAPGKERELVAAISWTGGSTYYADSVKGRFTISRDNAKNTVYLQMNSLKPEDTAVYYCAAVGRSKRDGYWGQGTQVTVSS | high polyreactivity
QVQLVESGGGLVQAGGSLRLSCAASGRIFGAYAKGWYRQAPGTERELVAAISGSGGSTSYADSVKGRFTISRDNAKNTVYLQMNSLKPEDTAVYYCNAVSYVDIWDDRRYYYWVQGTQVTVSS | low polyreactivity
QVQLVESGGGLDQAGGSLRLSCAASGLTFGGNAMGWYRQAPGKERELVAAISWSDDTTDYADSVKGRFTISRDNAKNTVYLQMNSLKPEDTAVYYCAARLPFEHVDYWGQGTQVTVSS | low polyreactivity
QVQLVESGGGLVQAGGSLRLSCAASGSTFWYYAMGWYRQAPGKERELVAAITRGASTNYADSVKGRFTISRDNAKNTVYLQMNSLKPEDTAVYYSAAGPARWKGYYWGQGTQVTVSS | high polyreactivity
QVQLVESGGGLVQAGGSLRLSCAASGFTFYKYVMGWYRQAPGKERELVAAISYSSGSTYYADSVKGRFTISRDNAKNTVYLQMNSLKPEDTAVYYCAARTYYAPQNMGYWGQGTQVTVSS | high polyreactivity
QVQLVESGGGLVQAGGSLRLSCAASGITFRTYAMGWYRQALGKERELVAVITWSGGRTYYADSVKGRFTISRDNANNTVYLQMHSLKPEDTAVYYCNALAYYIRYYYWGQGTQVTVSS | high polyreactivity
QVQLVESGGGLVQAGGSLRLSCAASGRTYQANTMGWYRQAPVKEREFVAAISTSVGSTYYADSVKGRFTISRDNAKNTVYLQMKSLKPEDTALFYCAKASQSWGRDDYYYWGQGTQVTVSS | low polyreactivity
QVQLVESGGGLVQAGGSLRLSCAASGSIDNIYAMGWYRQAPGKERELVATITGIADSTYYADSVKGRFTISRDNAKNTVFLQMNSLKPEDTAVYYCAADKYVAEYDYWGQGTQVTVSS | low polyreactivity
QVQLVESGGGLVQAGGSLRLSCAASGFIFRYYAMGWYRQAPGKERELVAAITKSGGRTFYADSVKGRFTISRDNAKNTVYLQMNSLKPEDTAVYYCAARANGRDDYWGQGTQVTVSS | high polyreactivity
QVQLVESRGGLVQAGGSLRLSCAASRRIFVRNAIGWYIQEPGKERELVAAISSSGGPTYYADSVKGRFTISRDNAKNTVYLQMNSLKPEDTAVYYCAASSSNKEYDYWGQGTQVTVSS | high polyreactivity
QVQLVESGGCLVQAGGSLRLSCAASGSTFVKIVMGWYRQAPGKERELVAGITRGGSTYYADSVKGRFTISRDNAKNTVYLQMNSLKPEDTPVYYCAKRYAWDRDYWGQGTQVTVSS | high polyreactivity
QVQLVESGGGLVQAGGSLRLSCAASGRTFAIYAMGWYRQAPGKERELVATIRGGSTYYADSVKGRFTISRDNAKNTVYLQMNSLKPEDTAVYYCAAEFLYASVYYSYWGQGTQVTVSS | high polyreactivity
QVQLVESGGGLVQAGGSLRLSCAASGRIFSIYAMGWYRQAPGKERELVAAIRSRGGRTHYADSVKVRFTISRDNAKNTVYLQMNSLKPEDTAVYFCNAKYFSGDNYWGQGTQVTVSS | high polyreactivity
QVQLVESGGGLVQAGGSLRLSCAASGFIFEHYAMGWYRQAPVKERELVARISWRGGSTYYADSVKGRFTISRDNAKNTVYLQMNRLKPEDTAVYYCNALEVVYFGYYPSDYWGQGTQVTVSS | low polyreactivity
QVQLVDSGVGLVQAGGSLRLSCASSGSTFTINAMACYRHAPGKERELVAAISSGDSYYADSVKGRFTISRDNAKNTVYLQMNSLKPEDTTAVYYCAADSPGDSSKYDYWGQGTQVTVSS | low polyreactivity
QVQLVESGGGLVQAGGSLRLSCAASGFTFFYYVMGWYRQAPGKERELVAAISQHGGSTYYADSVKGRFTISRDNAKNTVYLQMNSLKPEDTAVYYCAASPVVNRRGTYGYWGQGTQVTVSS | high polyreactivity
QVQLVESGGGLVQAGGTLRLSCAASGRTYYGYAMGWYRQATGKERQLVAAIRSTTGSTYYADSVKGRFTISRDNAKITVYLQMNSLKPEDTAVYYCASAYPFYADMDYWGQGTQVTVSS | low polyreactivity
